Source: publication PMC4390494 (Journal of immunology (Baltimore, Md. : 1950), 2015)

Biological target: the molecule itself
Assay: pull-down

B1: HkRP3 (1) (aa 1-724), GST- or MBP-fused (domain or fragment, UniProt A6NC98-1 1-724, looked up)
chain: MEGGKGPRLRDFLSGSLATWALGLAGLVGEAEDSEGEEEEEEEEPPLWLEKRFLRLSDGALLLRVLGIIAPSSRGGPRMLRGLDGPAAWRVWNLNHLWGRLRDFYQEELQLLILSPPPDLQTLGFDPLSEEAVEQLEGVLRLLLGASVQCEHRELFIRHIQGLSLEVQSELAAAIQEVTQPGAGVVLALSGPDPGELAPAELEMLSRSLMGTLSKLARERDLGAQRLAELLLEREPLCLRPEAPSRAPAEGPSHHLALQLANAKAQLRRLRQELEEKAELLLDSQAEVQGLEAEIRRLRQEAQALSGQAKRAELYREEAEALRERAGRLPRLQEELRRCRERLQAAEAYKSQLEEERVLSGVLEASKALLEEQLEAARERCARLHETQRENLLLRTRLGEAHAELDSLRHQVDQLAEENVELELELQRSLEPPPGSPGEAPLAGAAPSLQDEVREAEAGRLRTLERENRELRGLLQVLQGQPGGQHPLLEAPREDPVLPVLEEAPQTPVAFDHSPQGLVQKARDGGPQALDLAPPALDSVLEASAECPQAPDSDPQEAESPLQAAAMDPQASDWSPQESGSPVETQESPEKAGRRSSLQSPASVAPPQGPGTKIQAPQLLGGETEGREAPQGELVPEAWGLRQEGPEHKPGPSEPSSVQLEEQEGPNQGLDLATGQAEAREHDQRLEGTVRDPAWQKPQQKSEGALEVQVWEGPIPGESLASGV
Does B1 bind?
Result: binds
